Source: article doi:10.1101/2020.09.18.291195 (bioRxiv, 2020)

Experiments:
[1] = biological target: human LI-cadherin EC1-5 (human); assay: AUC
[2] = biological target: the molecule itself; assay: AUC

human LI-cadherin EC1-5 (domain or fragment)
Kd [1]: 22.8 µM
stoichiometry N [1]: 2

B1: human LI-cadherin EC1-4 (domain or fragment)
chain: QEGKFSGPLKPMTFSIYEGQEPSQIIFQFKANPPAVTFELTGETDNIFVIEREGLLYYNRALDRETRSTHNLQVAALDANGIIVEGPVPITIKVKDINDNRPTFLQSKYEGSVRQNSRPGKPFLYVNATDLDDPATPNGQLYYQIVIQLPMINNVMYFQINNKTGAISLTREGSQELNPAKNPSYNLVISVKDMGGQSENSFSDTTSVDIIVTENIWKAPKPVEMVENSTDPHPIKITQVRWNDPGAQYSLVDKEKLPRFPFSIDQEGDIYVTQPLDREEKDAYVFYAVAKDEYGKPLSYPLEIHVKVKDINDNPPTCPSPVTVFEVQENERLGNSIGTLTAHDRDEENTANSFLNYRIVEQTPKLPMDGLFLIQTYAGMLQLAKQSLKKQDTPQYNLTIEVSDKDFKTLCFVQINVID
modifications: N-glycans (four partial N-glycans modelled in chain A and two in chain B of the crystal structure)
Kd [2]: 39.8 µM
stoichiometry N [2]: 2

B2: human LI-cadherin EC1-2 (domain or fragment)
chain: GPLKPMTFSIYEGQEPSQIIFQFKANPPAVTFELTGETDNIFVIEREGLLYYNRALDRETRSTHNLQVAALDANGIIVEGPVPITIKVKDINDNRPTFLQSKYEGSVRQNSRPGKPFLYVNATDLDDPATPNGQLYYQIVIQLPMINNVMYFQINNKTGAISLTREGSQELNPAKNPSYNLVISVKDMGGQSENSFSDTTSVDIIVTE
Kd [2]: 75 µM
stoichiometry N [2]: 2
